Data on two substances can be found in paper doi:10.1101/2020.11.03.367284.

Test [1] concerns the target GSU0105, triheme c-type cytochrome from Geobacter sulfurreducens, with C-terminal Factor Xa-cleavable His-tag (Geobacter sulfurreducens). The test is described as follows: pull-down.
For test [2] the target is unchanged. The test is described as follows: SAXS.

As to “PpcD, triheme cytochrome c7 from Geobacter sulfurreducens (natural protein)”, the equilibrium dissociation constant (Kd) (usually a measure of binding affinity in units of concentration) in test [1] was less than 10 µM. For the substance “GSU0105, triheme c-type cytochrome from Geobacter sulfurreducens, with C-terminal Factor Xa-cleavable His-tag (natural protein)”, in test [2], the stoichiometry N (as a rule, the number of molecules, sites or subunits per partner or assembly) worked out at 4.
